Measurements reported in the nanobody polyreactivity screen of Harvey et al. (2022).

Test: yeast display, Sf9 membrane polyspecificity reagent, FACS + sequencing; frameworks hold sequencing errors
How it was run: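 A synthetic nanobody library was expressed on Saccharomyces cerevisiae BJ5465 by galactose induction for 36–48 hours. The library was stained for 1 hour at 4 °C with 10% biotinylated, detergent-solubilized Sf9 membrane reagent and enriched with streptavidin microbeads before FACS. Low and high (top ~1%) gates were set on anti-HA fluorescence for expression and streptavidin fluorescence for reagent binding, and each polyreactivity label reflects the gate of origin.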

QVQLVESGGGLVQAGGSLRLSCAASGLIFRGYAMGWYRQAPGKERELVAAISRSGGRTYYADSVKGRYTISRDNAKNTVYLQMNSLKPVDTAVYYCAAQWLYLEYDYWGQGTQVTVSS
polyreactivity (PSR sort gate): high polyreactivity

QVQLVESGGGLVQAGGSLRLSCAASGYTFQTNTMGWYRQAPGKERELVAAITDGDSTNYADSVKGRFTISRDNAKNTVYLQMNSLKPEDTAVYYCAAQYYYSEAGMDYWGQGTQVTVSS
polyreactivity (PSR sort gate): low polyreactivity

QVQLVESGGGLVQAGGSLRLSCAASGRTFYNYAMGGYRQAPGKERELVAAISWSDGTTYYADSVKGRFTISRDNAKNTVYLQMNSLKPEDTAVYYCAAEFESSFALGFYYWGQGTQVTVSS
polyreactivity (PSR sort gate): high polyreactivity

QVQLVESGGGLVQAGGSLRLSCAASGRISASYAMGWYRQAPGKEREWVAAITGSGGSTYYADSVKGRFTISRDNAQNTVYLQMNSLKPEDTGVYYCAAEPVLSVFFEFDSWGQGTQVTVSS
polyreactivity (PSR sort gate): low polyreactivity

QVQLVESGRGLVQAGGSLRLSCAASGRIGKYAMGWYRQAPGKERELVATISSTGTTNYADSVKGRFTISRDNAKNTVYLQMNSLKPDDTAVYYCAAVRHKEYDYWGQGTQVTVSS
polyreactivity (PSR sort gate): high polyreactivity

QVQLVESGGGLVQAGGSLRLSCAASGITFYSNAMGWYRQAPGKERELVARISSSGGSTYYADSVKGRFTISRDNAKNTVYLQMNSLKPEDTAVYYCAARRLWVRGYNYWGQGTQVTVSS
polyreactivity (PSR sort gate): high polyreactivity

QVQLVESGGGLVQAGGSLRLSCAASGFNFSLNAMGWYRQAPGKERELVAAISRSGGRTYYADSVKGRFTISRDNAKNTVYLQMNSLKPEDTAVYYCAAVPITWYAYDYWGQGTQVTVSS
polyreactivity (PSR sort gate): high polyreactivity

QVQLVESGGGLVQAGGSLRLSCAASGFIIDDNTMGWYRQAPGKEMELVAAISYSAGSTYYADSVKGRFTISRDNAKNTVYLQMNSVKPEDTAVYYCAAQHYWVTSYLSSSDYWGQGTQVTVSS
polyreactivity (PSR sort gate): low polyreactivity

QVQLLESGGGLVQAGGSLRLSCAASGSTFYCYTMGWYRQAPGKERELVARISSSGSTNYADSVKGRFTISRDNAKNTVYLQMNSLKPEDTAVYYCNKDWIYRGYDYWGQGTQVTVSS
polyreactivity (PSR sort gate): high polyreactivity

QVQLVESGGGLVQAGGSLRLSCAASGRTFYIYVMGWYRQAPGKERELVAGITWRGGITYYADSVKGRFTISRDNAKNNVYLQMNSLKPEDTAVYYCAVDDLGSEYDYWGQGTQVTVSS
polyreactivity (PSR sort gate): low polyreactivity

QVQLVESGGGLDQAGGSLRLSCAASGSIIYWYAKGWYRQAPGKERELVADISRGGITNYADSVKGRFTISRDNEKNTVYLQMNSLKPEDTAFYYCAKTHYGVQRLDSWGQGTQVTVSS
polyreactivity (PSR sort gate): low polyreactivity

QVQRVESGGGLVQAGGSLRLSCAASGRIFVNYPIGWYRQAPGKERELVAAITSHGSTSYADSVKGRFTISRDNAKNTVYLQMNSLKPEDTAVYYCANDFFEHSPVSHTYSSSKYDYWGQGTQVTVSS
polyreactivity (PSR sort gate): low polyreactivity

QVQLVESGGGLVQAGGSLRLSCAASGSTFTSNAMGWYRQAPGKERELVASISWSGGRTYYADSVKGRFTISRDNAKNTVYLQMNSLKPEDTAVYYCAAASYQSRYWNYYWGQGTQVTVSS
polyreactivity (PSR sort gate): high polyreactivity

QVQLVESGGGLVQAGGSLRLSCAASGFIFYPYAMGWYRQAPGKERELVAVIRWSGGRTYYADSVKGRFTISRDNAKNTVYLQMNSLKPEDTSVYYCNARKITRYAVGPRKLGDYWGQGTQVTVTS
polyreactivity (PSR sort gate): high polyreactivity

QVQLVESGGGLVQAGGSLRLSCAASGSTIYPYAMGWYRQAPGKERELVASISGGGSTYYADSVKGRFTISRDNAKNTVYLQMNSLKPEDTAVYYCNAEFDLYWYRYYYWGQGTQVTVSS
polyreactivity (PSR sort gate): high polyreactivity

QVQLVESGGGLVQAGGSLRLSCAASGFTFKAYAMGWYRQAPGKERELVAAITRSGGRTYYADSVKGRFTISRDNAKNTVYLQMNSLKPEDTAVYYCARDYTRYAYDHWGQGTQVTVSS
polyreactivity (PSR sort gate): high polyreactivity

QVQLVESGGGLVQAGGSLRLSCAASGRTFRWYAMGWYRPAPAKERELVAAISSRGGSTYYADSVKGRFTISRDNAKNTVFLQMNSLKPEDTAVYYCAAVDNWLTLSDYDYWGQGTQVTVSS
polyreactivity (PSR sort gate): low polyreactivity

QVQLVESCGALVQAGGSLLLSCAASGRTFVVNDMGWYRHAPWKERELVATINVSGGSTSYEDSVKGRFTISRDNGKYTVYLQMTSLKPEDTAVYYCNVDTYVEYPHDYWGQGTQVTVSS
polyreactivity (PSR sort gate): low polyreactivity

QVQLVESGGGLVQAGGSLRLSCAASGYTFWDYALGCYRQAPGKERAFVAGISFSDGGTYYADSVKGRFTISRDNAKNTVYLQMNSLKPEDTAVYYCAATYPYSWVYSGYYYWGQGTQVTVSS
polyreactivity (PSR sort gate): low polyreactivity

QVQHVESGGGLVQAGGSLRLSCAASGSILDIYAMGWYRQATGKERELVAAITGGGSTNYADSVNGRFTISRDNAKNTVYLLMNSLKPEDTAVYYCAAGTYLNGGGEYWGQGTQVTVSS
polyreactivity (PSR sort gate): low polyreactivity

QVQLLESGGGLLQAGGSLRLSCAASGLTFGKYAMGWYRQAPGKERELVAAINSSGGSTYYADSVKGRFTISRDNAKNTVYLQMNSLKPEDSAVYYRAVAVYRLIYFVYNYWGQGTQVTVSS
polyreactivity (PSR sort gate): low polyreactivity

QVQLVESGGGLVQAGGSLRLSCPASGRIFRYYPMGWYRQAPGKEREFVAGITWSGGRTYYADSVKGRFTISRDNAKNTVFVQMNSLKPEDTAVYYCNADAGTRVGWWDDYDYWGQGTQVTVSS
polyreactivity (PSR sort gate): low polyreactivity

QVQLVESGGGLVQAGGSLRLSCAASVRTFKYYAMGWYRQAPGKERELVASISRGGGSTYYADSVKGRFTISRDNAKNTVYLQMNSLKPDDTAVYYCAAYLRTRYIYCGQGTQVTVSS
polyreactivity (PSR sort gate): high polyreactivity

QVQLVESGGGLVQAGGSLRLSCAASGIIFSSYVMGWYRKATGKERELVAAISSRGVSTYYADSVKGRFTISRDNAKNTVYLQMNSLKPEDTAVYYCNAKDKQGRKQFKLCAGYYLGQGTQVTVSS
polyreactivity (PSR sort gate): high polyreactivity

QVQLVESGGGLVQAGGSLRLSCAASGIIFHYYAMGWYRQAPGKEREFVASISFSGSSTYYADSVKGRFTISRDNAKNTVYLQMNSLKPEDTAVYYCAARYLYGPKYYYWGQGTQVTVSS
polyreactivity (PSR sort gate): high polyreactivity

QVQLVESGGGIVQAGGSLPLSCAASGSTYNSYAMGWYRQAPGKDRELVAGISYIGGRTYYADSVKGRFTISRDNAKNTVYLQMNSLKPEDTAVYYCAAVYWYGRRKYYSWGQGTQVTVSS
polyreactivity (PSR sort gate): high polyreactivity

QVQLVESGGGLVQAGGSLRLSCAASGFTLGRYAMGWYRQAPGKERELVAAISSGGRTYYADSVKGRFTISRDNAKNTVYLQMNSLKPEDTAVYYCAADPRYISYDYWGQGTQVTVSS
polyreactivity (PSR sort gate): low polyreactivity

QVQLVESGGGLVQAGGSLRLSCAASGFIFGNYPMGWYRQAPGKQRELVAAITSGGNTNYADSVKGRFTISRDNAKNTVYLQMNSLKPEDTAVYYCAADRNLYWVFSPNETEDYWGQGTQVTVSS
polyreactivity (PSR sort gate): low polyreactivity

QVQLVESGGGLVQAGGSLRLSCAASGIPRNTMGWYRQAPGKETELVASISTSGGSTYYADSVKGRFTISRDNAKNTVYLQMNSLKPEDTAVYYCAKKGYASRYFIYDYWGQGTQVTVSS
polyreactivity (PSR sort gate): low polyreactivity

QVQHVESGRGLVQAGGSLRLSCAASGITFRYYAMGWYRQAPGKERELVAAISRGTSTKYADSVKGRFTISRDNAKNTVYLQMNSQKPEDTAVYYCAVYGYWSKSDYWGQGTQVTVSS
polyreactivity (PSR sort gate): low polyreactivity

QVQLQESGGGLMQAGGNLRLSCAASGYISTHYDMDWYRPAPGKERELVARIDDGAITNYADSVKGRFTISRDNAKNTVYLQMNSLKPEDTAVYYCAVYSGDDYYHDYWGQGTQVTVSS
polyreactivity (PSR sort gate): low polyreactivity

QVQLVESGGGLVQAGGSLRLSSAASGRTFWNNAMGWYRQAPGKERELVAAITSGGRTNYADSVKGRFTISRDNAKNTVYLQMNSLKPEDTAVYYCAAVGYVIYDYWVQGTQVTVSS
polyreactivity (PSR sort gate): low polyreactivity
